{
  "source": "patent US20100098709A1",
  "about": "(AstraZeneca / MedImmune, published 2010)",
  "key": {"[1]": {"target": "T1, biotinylated anti-FLAG monoclonal antibody (Sigma F9291)", "T1 construct": "Control coat of the phage ELISA plates (streptavidin plate treated with the anti-FLAG antibody, then MPBS only); also called anti FLAG antibody treated plates alone", "test": "phage ELISA, anti-FLAG treated plate alone"}, "[2]": {"target": "T2, HIS FLAG tagged human IL-6 (human, UniProt P05231 30-212)", "T2 construct": "also called HIS FLAG IL-6; FLAG-IL-6", "test": "phage ELISA"}, "[3]": {"target": "T3, FLAG HIS tagged soluble IL-6Ra (human, UniProt P08887 20-358, limits assumed)", "T3 construct": "the key was followed; also called HIS FLAG sIL-6R; FLAG-sIL-6R", "T3 sequence": "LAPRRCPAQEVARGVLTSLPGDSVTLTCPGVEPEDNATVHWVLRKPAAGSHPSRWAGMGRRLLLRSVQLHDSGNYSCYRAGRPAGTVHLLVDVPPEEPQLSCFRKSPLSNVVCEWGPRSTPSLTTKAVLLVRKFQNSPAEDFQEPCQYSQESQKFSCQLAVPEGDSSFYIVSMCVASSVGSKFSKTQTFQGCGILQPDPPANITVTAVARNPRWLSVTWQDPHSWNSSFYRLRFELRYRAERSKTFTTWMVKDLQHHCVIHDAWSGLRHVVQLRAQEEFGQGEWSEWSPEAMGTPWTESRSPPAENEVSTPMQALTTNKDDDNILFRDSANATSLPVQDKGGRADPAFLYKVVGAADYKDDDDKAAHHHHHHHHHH", "test": "phage ELISA"}, "[4]": {"target": "T2, HIS FLAG tagged human IL-6", "test": "phage ELISA, antigen on anti-FLAG plate"}, "[5]": {"target": "T4, FLAG HIS tagged Hyper IL-6", "T4 construct": "also called HIS FLAG Hyper IL-6", "test": "phage ELISA, antigen on anti-FLAG plate"}, "[6]": {"target": "T3, FLAG HIS tagged soluble IL-6Ra", "test": "phage ELISA, antigen on anti-FLAG plate"}, "[7]": {"target": "T5, Complex 1: HIS FLAG IL-6/sIL-6R (human, UniProt P05231 30-212; P08887 20-358, limits assumed)", "T5 construct": "Non-covalent complex made by pre-incubating the two proteins; The untagged sIL-6R was bought; also called IL-6/sIL-6R complex consisting of FLAG tagged ligand and untagged receptor", "test": "phage ELISA, antigen on anti-FLAG plate"}, "[8]": {"target": "T6, Complex 2: IL-6/HIS FLAG sIL-6R (human, UniProt P05231 30-212; P08887 20-358, limits assumed)", "T6 construct": "Non-covalent complex made by pre-incubating the two proteins; Untagged IL-6 was bought; also called IL-6/sIL-6R complex consisting of untagged ligand and FLAG tagged receptor", "test": "phage ELISA, antigen on anti-FLAG plate"}},
  "data": [
    {"binder": "Antibody 5 scFv (scFv, V domains shown, also called Ab 5) VH: not shown VL: QSVLTQPPSVSGAPGQRVTISCTGSSSNIGAGYDVHWYQQLPGTAPKLLIYGNSNRPSGVPDRFSGSKSGTSASLAITGLQAEDEADYYCQSYDSSLSGWVFGGGTKVTVLG", "values": [
      {"measurement": "Absorbance (450 nM)", "setting": "[1]", "result": 0.062},
      {"measurement": "binding result", "setting": "[2]", "result": "no binding"},
      {"measurement": "binding result", "setting": "[3]", "result": "no binding"},
      {"measurement": "Absorbance (450 nM)", "setting": "[4]", "result": 0.065},
      {"measurement": "Absorbance (450 nM)", "setting": "[5]", "result": 0.833},
      {"measurement": "Absorbance (450 nM)", "setting": "[6]", "result": 0.061},
      {"measurement": "Absorbance (450 nM)", "setting": "[7]", "result": 0.331},
      {"measurement": "Absorbance (450 nM)", "setting": "[8]", "result": 0.747}
    ]}
  ]
}
